Target: HLA-A*24 (human)
Experiment: UV peptide exchange, anti-b2m ELISA

Row | Binder | peptide exchange yield
1 | TYTTVPRVAF [SEQ ID No 172 peptide …] | > 75%
2 | VYPWLGALL [SEQ ID No 177 peptide …] | > 75%
3 | IFIEVFSHF [SEQ ID No 178 peptide …] | 50 to 75%
4 | MYDSYWRQF [SEQ ID No 179 peptide …] | > 75%
5 | IYDDSFIRPVTF [SEQ ID No 180 peptide …] | 50 to 75%
6 | LYLDIINLF [SEQ ID No 181 peptide …] | > 75%
7 | IYQLDTASI [SEQ ID No 182 peptide …] | 50 to 75%
8 | VFTSTARAF [SEQ ID No 183 peptide …] | 50 to 75%
9 | VFQNFPLLF [SEQ ID No 184 peptide …] | > 75%
10 | IYKVGAPTI [SEQ ID No 185 peptide …] | 50 to 75%
11 | IFPQFLYQF [SEQ ID No 186 peptide …] | > 75%
12 | TYLRDQHFL [SEQ ID No 187 peptide …] | > 75%
13 | RYFKGLVF [SEQ ID No 188 peptide RYFKGLVF] | 50 to 75%
14 | WYVNGVNYF [SEQ ID No 189 peptide …] | 20 to 49%
15 | GFFIFNERF [SEQ ID No 190 peptide …] | 50 to 75%
16 | VFKASKITF [SEQ ID No 191 peptide …] | 50 to 75%
17 | SYALLTYMI [SEQ ID No 192 peptide …] | > 75%
18 | RFHPTPLLL [SEQ ID No 193 peptide …] | > 75%
19 | EFGSLHLEFL [SEQ ID No 194 peptide …] | < 20%
20 | LYLDKATLI [SEQ ID No 198 peptide …] | 50 to 75%
21 | FYSRLLQKF [SEQ ID No 203 peptide …] | 50 to 75%
22 | VHIPEVYLI [SEQ ID No 205 peptide …] | 50 to 75%
23 | EYQENFLSF [SEQ ID No 206 peptide …] | 50 to 75%
24 | TYTQDFNKF [SEQ ID No 208 peptide …] | 50 to 75%
25 | IYTMIYRNL [SEQ ID No 210 peptide …] | > 75%

Row | Binder | peptide exchange yield
26 | YYLEVGKTLI [SEQ ID No 211 peptide …] | > 75%
27 | LYLKLWNLI [SEQ ID No 214 peptide …] | 50 to 75%
28 | YFDKVVTL [SEQ ID No 215 peptide YFDKVVTL] | 20 to 49%
29 | QYSSVFKSL [SEQ ID No 216 peptide …] | > 75%
30 | FFPPTRQMGLLF [SEQ ID No 217 peptide …] | > 75%
31 | EYPLVINTL [SEQ ID No 219 peptide …] | 50 to 75%
32 | RYSTGLAGNLL [SEQ ID No 221 peptide …] | 50 to 75%
33 | KYIPYKYVI [SEQ ID No 223 peptide …] | 50 to 75%
34 | QYLENLEKL [SEQ ID No 224 peptide …] | 50 to 75%
35 | YYVYIMNHL [SEQ ID No 225 peptide …] | 50 to 75%
36 | VYRDETGELF [SEQ ID No 226 peptide …] | 50 to 75%
37 | IFLDYEAGTLSF [SEQ ID No 227 peptide …] | > 75%
38 | KYTSWYVAL [SEQ ID No 228 peptide …] | > 75%
39 | KYMVYPQTF [SEQ ID No 267 peptide …] | > 75%
40 | LYHDIFSRL [SEQ ID No 271 peptide …] | > 75%
41 | QYLQDAYSF [SEQ ID No 272 peptide …] | > 75%
42 | TYIKPISKL [SEQ ID No 273 peptide …] | 50 to 75%
43 | AYLHSHALI [SEQ ID No 274 peptide …] | > 75%
44 | EYINQGDLHEF [SEQ ID No 275 peptide …] | 50 to 75%
45 | VYGFQWRHF [SEQ ID No 276 peptide …] | > 75%
46 | RYISDQLFTNF [SEQ ID No 278 peptide …] | > 75%
47 | TYIESASEL [SEQ ID No 279 peptide …] | 50 to 75%
48 | RYPDNLKHLYL [SEQ ID No 280 peptide …] | > 75%
49 | KFVDSTFYL [SEQ ID No 282 peptide …] | > 75%
50 | TYGDAGLTYTF [SEQ ID No 283 peptide …] | 50 to 75%

Row | Binder | peptide exchange yield
51 | RYLNKAFHI [SEQ ID No 284 peptide …] | 50 to 75%
52 | RYPDNLKHL [SEQ ID No 286 peptide …] | 20 to 49%
53 | VYVSDIQEL [SEQ ID No 288 peptide …] | 50 to 75%
54 | KYPVEWAKF [SEQ ID No 289 peptide …] | > 75%
55 | HYSQELSLLYL [SEQ ID No 158 peptide …] | > 75%
56 | LYNKGFIYL [SEQ ID No 159 peptide …] | > 75%
57 | VYTLDIPVL [SEQ ID No 160 peptide …] | > 75%
58 | IYLVSIPEL [SEQ ID No 161 peptide …] | > 75%
59 | VFTRVSSFL [SEQ ID No 162 peptide …] | 50 to 75%
60 | DYLKGLASF [SEQ ID No 163 peptide …] | > 75%
61 | KFSSFSLFF [SEQ ID No 164 peptide …] | 50 to 75%
62 | DYTTWTALL [SEQ ID No 165 peptide …] | > 75%
63 | YYVESGKLF [SEQ ID No 166 peptide …] | > 75%
64 | NYINRILKL [SEQ ID No 167 peptide …] | > 75%
65 | KYQDILETI [SEQ ID No 168 peptide …] | > 75%
66 | AYTLIAPNI [SEQ ID No 169 peptide …] | 50 to 75%
67 | VYEDQVGKF [SEQ ID No 170 peptide …] | 20 to 49%
68 | LFIPSSKLLFL [SEQ ID No 171 peptide …] | 50 to 75%
69 | IYSWILDHF [SEQ ID No 173 peptide …] | > 75%
70 | VYVGGGQIIHL [SEQ ID No 174 peptide …] | 50 to 75%
71 | YYEVHKELF [SEQ ID No 175 peptide …] | > 75%
72 | EYNQWFTKL [SEQ ID No 176 peptide …] | 50 to 75%
73 | TYSVSFPMF [SEQ ID No 195 peptide …] | > 75%
74 | LYIDRPLPYL [SEQ ID No 196 peptide …] | 50 to 75%
75 | EYSLFPGQVVI [SEQ ID No 197 peptide …] | 50 to 75%

Reference: patent US20170189505A1
